Groups on a side chain read outwards from the residue. *: point of attachment. Biotin = O=C1N[C@H]2[C@H](CS[C@H]2CCCCC(=O)*)N1; PEG = not defined here
Experiments:
Test in all cases: cell-based or functional assay
CCR4 = molecular target: T1, CCR4 (human, UniProt P51679 1-360)
T1 sequence (looked up): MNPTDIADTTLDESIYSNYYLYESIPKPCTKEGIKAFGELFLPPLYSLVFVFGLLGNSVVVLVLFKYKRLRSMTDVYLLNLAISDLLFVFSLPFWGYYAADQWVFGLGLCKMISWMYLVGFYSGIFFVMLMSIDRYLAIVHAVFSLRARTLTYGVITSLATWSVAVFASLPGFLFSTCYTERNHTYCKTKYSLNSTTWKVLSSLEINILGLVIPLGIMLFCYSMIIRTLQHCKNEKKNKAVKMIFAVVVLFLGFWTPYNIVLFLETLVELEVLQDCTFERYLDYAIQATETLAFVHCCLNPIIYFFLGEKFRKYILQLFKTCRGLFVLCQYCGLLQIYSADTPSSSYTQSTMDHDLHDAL

chemokine receptor CCR7 = molecular target: T2, chemokine receptor CCR7 (human, UniProt P32248 25-378)
T2 sequence (looked up): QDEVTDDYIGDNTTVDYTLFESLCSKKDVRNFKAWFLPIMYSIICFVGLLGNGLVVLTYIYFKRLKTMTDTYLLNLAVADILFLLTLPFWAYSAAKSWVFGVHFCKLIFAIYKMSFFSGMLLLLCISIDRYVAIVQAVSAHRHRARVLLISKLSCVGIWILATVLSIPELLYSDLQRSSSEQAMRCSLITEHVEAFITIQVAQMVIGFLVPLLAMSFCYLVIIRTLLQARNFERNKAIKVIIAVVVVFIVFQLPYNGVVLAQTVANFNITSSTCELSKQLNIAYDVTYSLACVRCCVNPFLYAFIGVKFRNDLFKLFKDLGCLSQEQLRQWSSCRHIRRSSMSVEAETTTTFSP

hCXCR3 = molecular target: T3, hCXCR3 (human, UniProt P49682 1-368)
T3 sequence (looked up): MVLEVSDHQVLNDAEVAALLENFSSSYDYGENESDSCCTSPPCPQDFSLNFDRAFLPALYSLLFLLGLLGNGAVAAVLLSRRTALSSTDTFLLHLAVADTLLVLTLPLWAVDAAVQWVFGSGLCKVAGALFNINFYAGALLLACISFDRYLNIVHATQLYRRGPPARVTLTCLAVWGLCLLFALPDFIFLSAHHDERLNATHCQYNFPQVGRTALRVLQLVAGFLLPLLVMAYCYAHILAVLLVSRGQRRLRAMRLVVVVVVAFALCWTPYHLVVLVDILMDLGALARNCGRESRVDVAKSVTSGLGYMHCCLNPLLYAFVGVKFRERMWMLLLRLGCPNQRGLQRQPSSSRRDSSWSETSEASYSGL

hCCR10 = molecular target: T4, hCCR10 (human, UniProt P46092 1-362)
T4 sequence (looked up): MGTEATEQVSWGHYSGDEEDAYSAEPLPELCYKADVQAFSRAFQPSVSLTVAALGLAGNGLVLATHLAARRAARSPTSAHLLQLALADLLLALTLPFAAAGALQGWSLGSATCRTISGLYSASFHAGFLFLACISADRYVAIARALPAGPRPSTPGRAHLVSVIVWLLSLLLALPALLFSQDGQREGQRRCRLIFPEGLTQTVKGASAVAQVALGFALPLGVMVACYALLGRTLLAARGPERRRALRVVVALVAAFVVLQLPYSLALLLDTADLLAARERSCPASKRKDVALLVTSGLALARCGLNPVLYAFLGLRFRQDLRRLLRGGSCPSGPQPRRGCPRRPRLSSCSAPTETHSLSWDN

hCCR5 = hCCR5 (human, UniProt P51681 1-352)
hCCR5, sequence (P51681 whole entry): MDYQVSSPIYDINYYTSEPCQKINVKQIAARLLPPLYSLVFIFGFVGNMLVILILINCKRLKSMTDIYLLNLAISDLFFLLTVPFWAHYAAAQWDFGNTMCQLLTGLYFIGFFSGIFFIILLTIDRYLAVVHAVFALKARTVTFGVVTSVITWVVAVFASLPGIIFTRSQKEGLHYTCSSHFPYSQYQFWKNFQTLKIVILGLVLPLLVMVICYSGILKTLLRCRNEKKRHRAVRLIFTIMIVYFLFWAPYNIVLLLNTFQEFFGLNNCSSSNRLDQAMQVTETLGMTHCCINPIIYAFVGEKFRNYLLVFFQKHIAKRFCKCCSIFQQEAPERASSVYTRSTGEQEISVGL

B1: biotinTARC (CCL17), TARC derivatised at the ε-amino side chain functionality of Lys(72) with PEG-Biotin (ligand)
chain: ARGTNVGRECCLEYFKGAIPLRKLKTWYQTSEDCSRDAIVFVTVQGRAICSDPNNKRVKNAVKYLQSLERSK([PEG-Biotin])-NH2
modifications: ends and bridges not checked; also: TFA salt
EC50, agonist activity, Aequorin assay (CCR4): 3.1 nM

B2: biotinMIP-3β (CCL19), MIP-3β derivatised at the ε-amino side chain functionality of Lys(78) with Biotin (ligand)
chain: GTNDAEDCCLSVTQKPIPGYIVRNFHYLLIKDGCRVPAVVFTTLRGRQLCAPPDQPWVERIIQRLQRTSAKMKRRSSX
modifications: additional Lys(78) = K(Biotin); assembled on Rink Amide resin (C-terminal amide)
EC50, agonist activity, Aequorin assay (chemokine receptor CCR7): 11 nM

B3: biotinITAC (CXCL11), ITAC derivatised with Biotin at the ε-amino side chain functionality of an additional Lysine inserted at the C-terminus after a PEG spacer (ligand)
chain: FPMFKRGRCLCIGPGVKAVKVADIEKASIMYPSNNCDKIEVIITLKENKGQRCLNPKSKQARLIIKKVERKNFX
modifications: X (position 74) is PEG-K(Biotin): PEG spacer between the protein's C-terminus and an additional biotinylated lysine
EC50, agonist activity, Aequorin assay (hCXCR3): 15.7 nM

B4: biotinCTAC (CCL27), CTAC derivatised at the ε-amino side chain functionality of Lys(87) with PEG-Biotin (ligand)
chain: FLLPPSTACCTQLYRKPLSDKLLRKVIQVELQEADGDCHLQAFVLHLAQRSICIHPQNPSLSQWFEHQERKLHGTLPKLNFGMLRKK([PEG-Biotin])G
modifications: ends and bridges not checked
EC50, agonist activity, Aequorin assay (hCCR10): 49.4 nM

B5: biotinRANTES (CCL5), RANTES derivatised at the ε-amino side chain functionality of Lys(67) with Biotin (ligand)
chain: SPYSSDTTPCCFAYIARPLPRAHIKEYFYTSGKCSNPAVVFVTRKNRQVCANPEKKWVREYINSLEK(Biotin)S
modifications: ends and bridges not checked
EC50, agonist activity, Aequorin assay (hCCR5): 0.5 nM

B6: biotinMDC (CCL22), MDC derivatised at the ε-amino side chain functionality of Lys(66) with PEG-Biotin (ligand)
chain: GPYGANMEDSVCCRDYVRYRLPLRVVKHFYWTSDSCPRPGVVLLTFRDKEICADPRVPWVKMILNK([PEG-Biotin])LSQ-NH2
modifications: ends and bridges not checked
EC50, agonist activity, Aequorin assay (CCR4): 4.5 nM
